{"source": "patent US20250099634A1", "about": "“METHOD OF TREATING CANCER” (Novartis AG, priority 2023, published 2025)", "key": {"progressive GEP-NETs": {"test_system": "progressive GEP-NETs", "settings": "cited from earlier work"}, "[1]": {"settings": "in vivo; cited from earlier work"}, "[2]": {"molecular_target": "P-glycoprotein (efflux transporter) (Homo sapiens, UniProt P08183)", "sequence (P08183 whole entry)": "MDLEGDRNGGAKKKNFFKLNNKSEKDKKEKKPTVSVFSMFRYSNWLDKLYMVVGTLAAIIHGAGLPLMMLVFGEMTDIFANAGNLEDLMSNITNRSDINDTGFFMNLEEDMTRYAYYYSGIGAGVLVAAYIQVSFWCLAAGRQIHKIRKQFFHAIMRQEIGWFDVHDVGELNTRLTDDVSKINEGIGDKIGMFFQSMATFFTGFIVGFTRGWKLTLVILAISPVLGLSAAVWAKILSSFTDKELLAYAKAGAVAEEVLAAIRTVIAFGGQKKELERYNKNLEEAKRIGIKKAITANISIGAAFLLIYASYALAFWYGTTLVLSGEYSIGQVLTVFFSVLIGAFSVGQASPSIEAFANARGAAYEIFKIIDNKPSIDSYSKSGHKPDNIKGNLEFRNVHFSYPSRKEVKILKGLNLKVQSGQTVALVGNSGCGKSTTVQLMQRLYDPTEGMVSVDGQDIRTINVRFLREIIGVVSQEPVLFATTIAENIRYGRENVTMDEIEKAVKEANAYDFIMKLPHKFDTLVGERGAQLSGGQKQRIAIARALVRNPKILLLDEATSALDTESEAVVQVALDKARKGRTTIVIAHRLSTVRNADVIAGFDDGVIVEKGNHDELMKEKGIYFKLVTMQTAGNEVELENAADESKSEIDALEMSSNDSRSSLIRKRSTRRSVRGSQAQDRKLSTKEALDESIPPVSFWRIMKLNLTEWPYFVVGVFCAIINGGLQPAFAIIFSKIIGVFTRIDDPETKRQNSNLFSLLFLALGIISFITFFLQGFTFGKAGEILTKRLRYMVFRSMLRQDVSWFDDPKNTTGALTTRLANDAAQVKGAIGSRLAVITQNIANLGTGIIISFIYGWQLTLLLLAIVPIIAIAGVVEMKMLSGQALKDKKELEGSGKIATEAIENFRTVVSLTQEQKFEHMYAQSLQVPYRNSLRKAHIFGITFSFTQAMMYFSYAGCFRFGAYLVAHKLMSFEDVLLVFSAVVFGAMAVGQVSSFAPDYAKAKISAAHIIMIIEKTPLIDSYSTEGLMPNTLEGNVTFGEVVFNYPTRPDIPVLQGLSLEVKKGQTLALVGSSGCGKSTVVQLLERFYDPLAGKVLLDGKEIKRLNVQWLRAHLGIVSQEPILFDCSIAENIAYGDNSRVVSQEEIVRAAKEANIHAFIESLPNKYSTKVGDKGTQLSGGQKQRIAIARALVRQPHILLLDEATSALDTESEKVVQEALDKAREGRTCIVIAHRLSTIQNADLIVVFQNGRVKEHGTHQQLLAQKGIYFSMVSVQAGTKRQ"}, "OAT1": {"molecular_target": "OAT1 (Homo sapiens, UniProt Q4U2R8)", "sequence (Q4U2R8 whole entry)": "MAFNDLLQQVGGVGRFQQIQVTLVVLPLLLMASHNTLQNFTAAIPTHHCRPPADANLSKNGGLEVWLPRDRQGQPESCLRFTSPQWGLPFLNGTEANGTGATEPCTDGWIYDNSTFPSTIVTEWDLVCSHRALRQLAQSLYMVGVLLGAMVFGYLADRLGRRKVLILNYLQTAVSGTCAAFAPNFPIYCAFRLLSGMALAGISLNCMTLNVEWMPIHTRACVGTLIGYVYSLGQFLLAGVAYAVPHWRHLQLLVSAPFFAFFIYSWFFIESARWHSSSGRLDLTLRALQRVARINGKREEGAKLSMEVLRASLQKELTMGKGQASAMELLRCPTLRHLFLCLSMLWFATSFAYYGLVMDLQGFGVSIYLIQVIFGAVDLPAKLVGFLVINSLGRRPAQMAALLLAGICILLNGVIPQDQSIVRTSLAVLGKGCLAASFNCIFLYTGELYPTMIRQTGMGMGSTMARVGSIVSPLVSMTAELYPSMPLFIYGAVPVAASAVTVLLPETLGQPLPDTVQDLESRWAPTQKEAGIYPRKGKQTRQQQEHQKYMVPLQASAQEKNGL"}, "OATP1B1": {"molecular_target": "OATP1B1 (Homo sapiens, UniProt Q9Y6L6)", "sequence (Q9Y6L6 whole entry)": "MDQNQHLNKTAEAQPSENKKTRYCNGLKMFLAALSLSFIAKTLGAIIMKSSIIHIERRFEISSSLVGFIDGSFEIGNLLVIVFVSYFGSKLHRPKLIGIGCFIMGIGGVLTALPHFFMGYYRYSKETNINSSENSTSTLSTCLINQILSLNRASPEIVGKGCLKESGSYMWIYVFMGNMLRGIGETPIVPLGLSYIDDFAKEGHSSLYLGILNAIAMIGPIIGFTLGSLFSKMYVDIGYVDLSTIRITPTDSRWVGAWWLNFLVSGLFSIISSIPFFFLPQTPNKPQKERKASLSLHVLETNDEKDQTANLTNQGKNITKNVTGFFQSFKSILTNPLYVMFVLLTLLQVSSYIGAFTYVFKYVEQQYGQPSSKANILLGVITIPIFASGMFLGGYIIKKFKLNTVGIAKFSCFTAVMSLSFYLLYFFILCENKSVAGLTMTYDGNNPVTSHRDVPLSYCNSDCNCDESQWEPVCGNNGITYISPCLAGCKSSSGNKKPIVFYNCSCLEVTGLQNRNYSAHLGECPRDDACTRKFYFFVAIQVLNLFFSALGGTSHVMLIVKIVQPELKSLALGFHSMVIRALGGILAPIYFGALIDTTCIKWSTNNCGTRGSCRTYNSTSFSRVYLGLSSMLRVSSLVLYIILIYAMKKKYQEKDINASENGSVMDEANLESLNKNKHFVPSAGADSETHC"}}, "data": [{"smiles": "C[C@@H](O)[C@H](NC(=O)[C@@H]1CSSC[C@H](NC(=O)[C@@H](Cc2ccccc2)NC(=O)CN2CCN(CC(=O)[O-])CCN(CC(=O)[O-])CCN(CC(=O)[O-])CC2)C(=O)N[C@@H](Cc2ccc(O)cc2)C(=O)N[C@H](Cc2c[nH]c3ccccc23)C(=O)N[C@@H](CCCCN)C(=O)N[C@@H]([C@@H](C)O)C(=O)N1)C(=O)O.[177Lu+3]", "note": "[Lutathera, ^177Lu-DOTA^0-Tyr^3-Octreotate]", "values": [{"measurement": "AML and MDS", "setting": "progressive GEP-NETs; in vivo", "result": "< 1", "unit": "%"}, {"measurement": "Hematologic grade 3/4 AEs", "setting": "progressive GEP-NETs; in vivo", "result": 9, "unit": "%"}, {"measurement": "median OS from the start of re-treatment", "setting": "progressive GEP-NETs; re-treatment, available in 194 patients", "result": 26.78, "unit": "months"}, {"measurement": "DCR", "setting": "progressive GEP-NETs; re-treatment, available in 347 patients", "result": 71, "unit": "%"}, {"measurement": "median PFS", "setting": "progressive GEP-NETs; re-treatment, available in 414 patients", "result": 12.52, "unit": "months"}, {"measurement": "delayed bone marrow toxicity", "setting": "[1]", "result": "1.5 to 2", "unit": "%"}, {"measurement": "interaction with P-glycoprotein", "setting": "[2]", "result": "absence of specific interaction"}, {"measurement": "interaction with OAT1", "setting": "OAT1", "result": "absence of specific interaction"}, {"measurement": "inhibition or induction of human CYP450 enzymes", "setting": "human CYP450 enzymes", "result": "absence of inhibition or significant induction"}, {"measurement": "interaction with OATP1B1", "setting": "OATP1B1", "result": "absence of specific interaction"}]}]}
